B1: Hammerhead Ribozyme (parent)
chain: ACCGGAUGUGCUUUCCGGUCUGAUGAGUCCGUGAGGACGAAACAG

Variants of: B1
Assay: self-cleavage, relative activity (ratio to wild type); higher = more cleavage; co-transcriptional

Row | Variant | self-cleavage
1 | A6C U7C | 0.577
2 | U7C U21C | 0.403
3 | C16U G39A | 0.327
4 | C3G U7A | 0.471
5 | C11G G18C | 0.426
6 | U14G G31A | 0.929
7 | C2A G33A | 0.958
8 | G4U G25A | 0.25
9 | G22U C30G | 0.277
10 | C2A C29U | 0.584
11 | C2A C29A | 0.376
12 | G4A A6U | 0.377
13 | U14C | 0.932
14 | C3G C43U | 0.272
15 | C3G C43G | 0.273
16 | A26C G27A | 0.313
17 | A1U G36C | 0.328
18 | U9G A37G | 0.983
19 | C11A G27U | 0.684
20 | A6U C43G | 0.342
21 | G10A C43G | 0.406
22 | G10C C16U | 0.964
23 | C3G U21A | 0.236
24 | C3A G33A | 0.674

Row | Variant | self-cleavage
25 | U14G A34C | 0.875
26 | C38G G39C | 0.326
27 | C15U U24G | 1.35
28 | G33C C38G | 0.567
29 | U21G G25C | 0.361
30 | G27A G35U | 0.411
31 | A23C G36U | 0.335
32 | G33A A40C | 0.792
33 | C16A C38A | 0.631
34 | C29A G33C | 0.442
35 | U28A G39C | 0.382
36 | A26C A42G | 0.371
37 | A1G C15U | 1.68
38 | G22A G25U | 0.376
39 | C3A C38G | 0.329
40 | U14G C30G | 0.721
41 | U9C U21A | 0.496
42 | C11U C16G | 0.684
43 | U12A A26U | 0.587
44 | U13C C29U | 0.819
45 | U13C C29A | 0.789
46 | U12G C15A | 1.09
47 | G22U A37C | 0.3
48 | G10U A44C | 0.534

Row | Variant | self-cleavage
49 | U7G C11G | 1.52
50 | G18C U24C | 0.477
51 | U13G G18A | 0.642
52 | A34U A40U | 0.305
53 | G5A C38U | 0.935
54 | U7C A26G | 0.305
55 | G27U A44G | 0.69
56 | A6U A40U | 0.351
57 | C30U G35U | 1.18
58 | G5A | 1.32
59 | U28C U32A | 0.984
60 | C16U C30G | 0.719
61 | U24C U28G | 0.99
62 | U19A A41G | 0.312
63 | U14C U24G | 0.816
64 | U14A G27A | 0.771
65 | G10U C20G | 0.343
66 | C38A A40G | 0.369
67 | U14A U32A | 1.38
68 | U19G G31C | 0.431
69 | C38A A42U | 0.283
70 | U9A U24A | 1.2
71 | U12A U19C | 0.366
72 | G4A U7G | 0.335

Row | Variant | self-cleavage
73 | A37G C43G | 0.385
74 | C2U G45A | 0.873
75 | A34U C38G | 0.403
76 | C2A C38G | 0.373
77 | G5C U14A | 0.845
78 | U7A G17C | 0.481
79 | G4U C11U | 0.319
80 | A42G A44U | 0.233
81 | U9G A42C | 0.303
82 | A37U A44U | 0.417
83 | A37C C43U | 0.392
84 | C15G U21G | 0.326
85 | C3A A6U | 0.371
86 | A26C A44U | 0.344
87 | U13C G17C | 0.573
88 | U13C U19C | 0.877
89 | U7G A44U | 0.422
90 | C11U A42C | 0.388
91 | G8A U24A | 1.11
92 | G17A G36C | 0.263
93 | G17U C30A | 0.583
94 | U32A A34C | 0.796
95 | A1U A6G | 0.459
96 | U13A U24A | 1.09

Row | Variant | self-cleavage
97 | C29G G36C | 0.799
98 | A6G A37G | 0.674
99 | U21G A40U | 0.331
100 | A1U A37C | 0.556
101 | G22A G31A | 0.337
102 | U21A G22C | 0.31
103 | G4U G45A | 0.351
104 | G8C G27U | 0.519
105 | C15U C29A | 0.686
106 | A40G A44U | 0.254
107 | U7C C29U | 0.992
108 | G4C G27C | 0.412
109 | U24G G33U | 1.02
110 | U13C A23C | 0.373
111 | C20U U24G | 0.714
112 | C11A U19G | 0.392
113 | G17A G45C | 0.385
114 | U9C U32A | 0.837
115 | C16U A23G | 0.423
116 | G10A A37G | 0.639
117 | G10A A37C | 1.19
118 | G31U G35U | 1.03
119 | A6C G31C | 0.573
120 | U7A U13G | 1.29

Row | Variant | self-cleavage
121 | G31C G45C | 0.515
122 | U32G A41C | 0.459
123 | U24A G39C | 0.496
124 | U24A G39U | 0.464
125 | G10C C20U | 0.487
126 | U24C G36U | 0.541
127 | U24C G36C | 0.383
128 | U13C C20U | 0.405
129 | U19C G35C | 0.492
130 | C16G G22A | 0.336
131 | A41G G45U | 0.407
132 | U21G G27C | 0.4
133 | U9G | 0.989
134 | U14G A37C | 0.777
135 | C15G C43A | 0.262
136 | C20A A40G | 0.326
137 | G18C U32C | 0.446
138 | G18C U32G | 0.503
139 | A42U G45A | 0.374
140 | G5U C20G | 0.333
141 | G36C G45U | 0.367
142 | C30U A42U | 0.328
143 | G22U U24G | 0.361
144 | C11A C38A | 0.892

Row | Variant | self-cleavage
145 | A37G A41G | 0.268
146 | A1C U14G | 0.426
147 | G35U G39A | 0.331
148 | C3U G8U | 0.945
149 | C2G C30A | 0.374
150 | C38G G45U | 0.562
151 | C38G G45A | 0.461
152 | G17A C43G | 0.441
153 | G10C | 1.05
154 | A1U A40G | 0.383
155 | G8A C20U | 0.594
156 | G4C G39U | 0.293
157 | G5A U21G | 0.378
158 | C20U U28G | 0.596
159 | A1C C15G | 0.43
160 | C3A | 0.772
161 | G17C U24A | 0.493
162 | U13G G27C | 0.546
163 | G8U C38A | 0.774
164 | U12G G35C | 0.444
165 | C2A U13G | 0.86
166 | U7A U28C | 1.26
167 | C30U A37U | 0.643

From the RNAGym collection of RNA variant scans (doi:10.7554/elife.80360)
